Test results taken from the supplement of paper PMC9732359.
± gives the uncertainty stated by the source.

Assay: protein stability index of a GFP-peptide fusion (yeast GPS) (PSI 1-4); higher = more stable; sorted into four equal gates, so the index is relative within each strain
In short: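 Peptides tiling yeast proteins in 17-residue segments were fused downstream of GFP, with Cherry expressed from the same plasmid. As a pooled library in yeast, mid-log cultures grown in leucine-free medium were sorted into four equal gates by GFP/Cherry fluorescence ratio. Gate plasmids were PCR-amplified and Illumina-sequenced, and barcodes linked reads to strains. Each peptide received a protein stability index equal to the sum of each gate's read frequency times its gate number.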

Sequence | protein stability index (doa10∆) | protein stability index (pdr5∆) | protein stability index (san1∆) | protein stability index (ubr1∆)
SGKARICIVGGYDDFQE [FAS2] | 2.91 ± 0.15 | 2.24 ± 0.1 | 3.36 ± 0.11 | 1.56 ± 0.17
LLREFKKLDDKPSLVDV [RPN6] |  | 3.44 ± 0.25 | 3.27 ± 0.26 | 
GIKYHATPPLKRFKDME [SMC1] | 3.1 ± 0.1 | 3.25 ± 0.075 | 2.95 ± 0.07 | 3.25 ± 0.076
DIFSNLSSDDLLGKESF [YCS4] | 2.87 ± 0.05 | 2.24 ± 0.05 | 2.95 ± 0.044 | 2.86 ± 0.034
RTMYFILDGQDVEENRS [YJR042W/NUP85] | 2.45 ± 0.077 | 3.03 ± 0.089 | 3.22 ± 0.086 | 3.23 ± 0.044
VTLLANVRALYMRLWEI [RMP1] | 1.57 ± 0.21 |  |  | 
KAMSSRAGVSQVLNRYT [RPB2] | 3.17 ± 0.11 | 3.21 ± 0.096 | 2.97 ± 0.073 | 3.29 ± 0.053
IKELRSKGYPIQFLTIG [FAS1] | 1.87 ± 0.11 | 2.22 ± 0.068 | 1.43 ± 0.096 | 1.68 ± 0.071
KIVVVRAEALNISGEFF [RPL16B] | 2.51 ± 0.12 | 2.79 ± 0.12 | 2.56 ± 0.14 | 3 ± 0.089
DFIDTATRHVLMRQGVL [RPS3] | 3.24 ± 0.055 | 3.06 ± 0.059 | 3.38 ± 0.054 | 2.98 ± 0.04
IIGHNPDENKTRVRLPS [RPL2A] | 2.93 ± 0.074 | 3.09 ± 0.077 | 2.93 ± 0.046 | 3 ± 0.048
MKNKAETTTEEDSENPS [ITC1] | 3.31 ± 0.19 | 3.27 ± 0.14 | 3.03 ± 0.13 | 3.31 ± 0.15
MIAKEVKTSPDAKKCIA [FAS1] | 1.71 ± 0.15 | 2.95 ± 0.28 | 2.8 ± 0.28 | 2.05 ± 0.12
AIKELNYNRIAKICALL [NUT1] | 2.41 ± 0.059 | 2.44 ± 0.065 | 2.37 ± 0.08 | 2.32 ± 0.043
PDRQSMDSRVAHGNILI [SRB5] | 3.14 ± 0.09 | 3.12 ± 0.064 | 3.02 ± 0.058 | 3.14 ± 0.05
KVTLNKETQQYELEFDT [BRR2] | 3.13 ± 0.058 | 3.01 ± 0.056 | 3.15 ± 0.035 | 3.19 ± 0.038
SEDHSFRKVKLRVDEVQ [RPS1B] | 3.05 ± 0.094 | 2.96 ± 0.15 | 2.66 ± 0.091 | 3.1 ± 0.067
RLGFFYNDQLYVKEKLE [RPN7] | 2.56 ± 0.17 | 3.13 ± 0.19 |  | 3.5 ± 0.087
RHSNALVDILPPDSDSS [RPT3] | 2.51 ± 0.076 | 2.65 ± 0.067 | 2.69 ± 0.062 | 2.47 ± 0.056
MARTKQTARKSTGGKAP [HHT1] | 3.31 ± 0.12 | 3.25 ± 0.11 | 3.04 ± 0.1 | 3.39 ± 0.092
NGGEDTSVENEGPVANL [REC8] | 3.37 ± 0.089 | 3.45 ± 0.094 | 3.06 ± 0.11 | 3.16 ± 0.058
ALRLSMEEEQQRQERLR [RPN10] | 3.33 ± 0.16 | 3.06 ± 0.26 | 3.36 ± 0.065 | 3.38 ± 0.11
GKEFGDVSVKMGNTKVH [RRP45] | 1.38 ± 0.073 | 1.53 ± 0.083 | 2.25 ± 0.069 | 1.95 ± 0.1
TPPDDLHPYVPSSKPQE [SRB8] | 2.71 ± 0.081 | 2.98 ± 0.073 | 2.93 ± 0.048 | 3.07 ± 0.049
TYRYVSVSVLVDRLKIG [RPS25A] | 2.28 ± 0.091 | 1.48 ± 0.08 | 1.72 ± 0.072 | 1.45 ± 0.039

Sequence | protein stability index (doa10∆) | protein stability index (pdr5∆) | protein stability index (san1∆) | protein stability index (ubr1∆)
YEAYPNTSLPPSILEDS [FAS1] | 2.15 ± 0.033 | 2.4 ± 0.03 | 2.25 ± 0.037 | 2.4 ± 0.027
IEELDNPMVPSSVNEDT [PRP8] | 3.26 ± 0.075 | 3.22 ± 0.065 | 3.33 ± 0.053 | 3.26 ± 0.049
FESLPLKSAENSGKQQY [SWP82] | 3.17 ± 0.063 | 3.3 ± 0.057 | 3.01 ± 0.055 | 3.2 ± 0.056
GLELSNFKSYRGVTKVG [SMC1] | 3.04 ± 0.094 | 3.09 ± 0.14 | 2.55 ± 0.15 | 2.45 ± 0.12
DALQDVEESSEKKQKTE [DPB4] | 3.2 ± 0.082 | 3.42 ± 0.076 | 3.21 ± 0.048 | 3.18 ± 0.052
GQCRTELEGSFNKSAEL [YCS4] | 3.04 ± 0.09 | 2.51 ± 0.095 | 2.6 ± 0.1 | 2.9 ± 0.081
ADKVYTKENLEVSGENV [QCR2] | 3.44 ± 0.1 | 3.59 ± 0.072 | 3.2 ± 0.092 | 3.28 ± 0.052
TMGGNAELELVDSLDPF [SMC4] | 3.25 ± 0.1 | 3.17 ± 0.086 | 3.39 ± 0.074 | 3.15 ± 0.084
TGAGAFGTGQSTFGFNN [YJL041W/NSP1] | 2.72 ± 0.055 | 2.57 ± 0.064 | 3.02 ± 0.058 | 2.85 ± 0.046
KIQFHIHFADVAHITTK [RGR1] | 2.88 ± 0.092 | 2.95 ± 0.087 | 2.83 ± 0.07 | 2.83 ± 0.058
PNIVEIDLDNDEDDDED [DLS1] | 3.17 ± 0.084 | 3.29 ± 0.065 | 2.89 ± 0.1 | 3.04 ± 0.15
EYDTPALFFDPSLNPIP [PRP8] | 2.82 ± 0.056 | 2.87 ± 0.036 | 2.65 ± 0.048 | 2.69 ± 0.036
NHVKQFYERLDKSTTQL [MED11] | 2.47 ± 0.061 | 2.64 ± 0.081 | 2.5 ± 0.052 | 2.62 ± 0.083
LESDVNIALVSKLRNNI [SRP54] | 2.31 ± 0.065 | 2.63 ± 0.056 | 2.74 ± 0.052 | 2.98 ± 0.067
SYLSETLISRISSLFTI [YML103C/NUP188] | 1.77 ± 0.062 | 1.89 ± 0.064 | 1.5 ± 0.074 | 2.05 ± 0.083
IEDKENSESTTQGGNVN [RPT5] | 3.59 ± 0.14 | 3.31 ± 0.14 | 3.46 ± 0.17 | 3.6 ± 0.11
FLSLLNLATKGMVKLNE [REC8] | 2.77 ± 0.07 | 1.59 ± 0.055 | 1.6 ± 0.078 | 1.58 ± 0.045
RIYTNSFIDIMEVLGIE [RPO21] | 2.84 ± 0.059 | 2.94 ± 0.052 | 3.02 ± 0.045 | 2.81 ± 0.041
KEKEAAESPEEADVEMS [PUP2] | 3.41 ± 0.11 | 3.51 ± 0.11 | 2.99 ± 0.076 | 3.28 ± 0.071
RIFKITEKLSPLASEES [YGL100W/SEH1] | 2.82 ± 0.056 | 2.5 ± 0.055 | 2.41 ± 0.066 | 2.57 ± 0.032
EINAVFNELCDPESRTQ [POP1] | 2.91 ± 0.079 | 3.01 ± 0.069 | 2.75 ± 0.092 | 2.93 ± 0.064
IVLGVKDLQENLLVLRG [RPO21] | 1.43 ± 0.078 | 1.35 ± 0.057 | 2.87 ± 0.059 | 1.5 ± 0.071
NELLLPSELNQLKMVNE [RPC82] | 3.14 ± 0.12 | 2.94 ± 0.13 | 3.25 ± 0.13 | 
LELNLSVLHSWVQLVQI [YJL039C/NUP192] | 1.28 ± 0.074 | 1.91 ± 0.085 | 2.11 ± 0.12 | 1.93 ± 0.09
SLVIIILVKRYSIEMKP [ECM29] | 1.15 ± 0.049 | 1.38 ± 0.04 | 1.59 ± 0.069 | 2.04 ± 0.044
